Biological target: the molecule itself
Assay: crystal structure; crystallised at >=30 mg/ml (crystal used: 60 mg/ml), 20°C, sitting drops, 0.1 M calcium chloride, 0.1 M sodium acetate pH 4.6, 30% PEG400; 1.3 Å; dimer of two symmetry-related molecules

B1: C-lobe of the catalytic (HECT) domain of E6AP (domain or fragment, UniProt Q05086-2 741-852, looked up)
chain: NLDFQALEETTEYDGGYTRDSVLIREFWEIVHSFTDEQKRLFLQFTTGTDRAPVGGLGKLKMIIAKNGPDTERLPTSHTCFNVLLLPEYSSKEKLKERLLKAITYAKGFGML
notes: E6AP (UBE3A), HECT-type ubiquitin ligase, C-lobe of the catalytic domain, residues 741-852; catalytic Cys820; numbers count on: isoform 1 (ends at residue 852); Cleavage by 3C protease may leave a few residues of the vector at the N-terminus; In the crystal the two Cys820 are read as partly joined by an intermolecular disulfide; also called E6AP C-lobe; C-terminal lobe of E6AP; source: E. coli …
- stoichiometry N: 2

Source: publication PMC7255509, “Crystal structure of the catalytic C‐lobe of the HECT‐type ubiquitin ligase E6AP” (Protein Science : A Publication of the Protein Society, 2020)
